B1: 9B8 opt: codon optimized version of the 9B8 variant (SEQ ID NO: 24) (protein)
chain: MVFTLEDFVGDWRQTAGYNLDQVLEQGGLSSLFQKLGVSVTPIQKIVLSGENGLKIDIHVIIPYEGLSGYQMGQIEKIFKVVYPVDDHHFKVILHYGTLVIDGVTPNMIDYFGRPYEGIAVFDGKKITVTGTLWNGNKIIDERLINPDGSLLFRVTINGVTGWRLCERILA
B2: Luc2: a firefly luciferase (SEQ ID NOs: 28 and 29) (protein, listed as Photinus pyralis)
chain: MEDAKNIKKGPAPFYPLEDGTAGEQLHKAMKRYALVPGTIAFTDAHIEVDITYAEYFEMSVRLAEAMKRYGLNTNHRIVVCSENSLQFFMPVLGALFIGVAVAPANDIYNERELLNSMGISQPTVVFVSKKGLQKILNVQKKLPIIQKIIIMDSKTDYQGFQSMYTFVTSHLPPGFNEYDFVPESFDRDKTIALIMNSSGSTGLPKGVALPHRTACVRFSHARDPIFGNQIIPDTAILSVVPFHHGFGMFTTLGYLICGFRVVLMYRFEEELFLRSLQDYKIQSALLVPTLFSFFAKSTLIDKYDLSNLHEIASGGAPLSKEVGEAVAKRFHLPGIRQGYGLTETTSAILITPEGDDKPGAVGKVVPFFEAKVVDLDTGKTLGVNQRGELCVRGPMIMSGYVNNPEATNALIDKDGWLHSGDIAYWDEDEHFFIVDRLKSLIKYKGYQVAPAELESILLQHPNIFDAGVAGLPDDDAGELPAAVVVLEHGKTMTEKEIVDYVASQVTTAKKLRGGVVFVDEVPKGLTGKLDARKIREILIKAKKGGKIAV

How the values were obtained:
[1] = test system: cAMP response element (CRE); assay: Transcriptional reporter, forward transfection, CRE in HEK293 cells; assay type: cell-based, human; details: 3 h; for baseline: 10 nM FSK
Protocol: HEK293 cells were plated at 15,000 cells/well in six 96-well tissue culture plates. Cells were grown in 100 μL of DMEM+10% FBS+1× non-essential amino acids (NEAA) and incubated overnight at 37° C. The cells were transiently transfected with either 10 ng or 100 ng plasmid DNA/well of pGL4.29 9B8 opt, pGL4.29 9B8 opt-P, or pGL4.29. Plasmid DNA was mixed with 850 μL of OPTI-MEMO (Invitrogen) and 32.4 μL of FUGENE® HD transfection reagent (Promega Corp.) and incubated at room temperature for 10 min. Eight μL of the transfection/reporter DNA mixture was added to the appropriate wells (2 constructs/plate). Cells were incubated for 4 hrs at 37° C. The medium was replaced with OPTI-MEM®+0.5% dialyzed FBS+1×NEAA+1× sodium pyruvate+1× Penn-Strep and incubated overnight at 37° C.
A lytic reagent containing 100 mM MES pH 6.1, 1 mM CDTA, 150 mM KCl, 35 mM thiourea, 2 mM DTT, 0.25% TERGITOLO NP-9 (v/v), 0.025% MAZUO DF 204, and 20 μM PBI-3939 was added to the cells containing pGL4.29 9B8 opt or pGL4.29 9B8 opt-P and allowed to incubated for 10 min at room temperature (100 μL lytic reagent added to 100 μL cells). ONE-GLO™ assay reagent (Promega Corp.) was added to cells containing pGL4.29 and used according to the manufacturer's protocol (100 μL reagent added to 100 μL cells). Luminescence was measured on a GLOMAX® Luminometer.

[2] = test system: CRE; assay: Transcriptional reporter, bulk transfection, CRE in NIH3T3 cells; assay type: cell-based; details: NIH3T3, 10 nM FSK, 4 h
Protocol: (§1) The transcriptional reporter containing HRE and 9B8 opt-P was used in the bulk transfection of HeLa cells
(§2) HEK293, NIH3T3, or HeLa cells were plated to a single well of a 6-well tissue culture plate the day before transfection at a density of 4.5×10^5 cells/well in 3 mL complete medium (DMEM+10% FBS+1×NEAA+1× sodium pyruvate) for HEK293 cells, 3×10^5 cells/well in 3 mL complete medium (DMEM+10% fetal calf serum (FCS)+1×NEAA+1× sodium pyruvate) for NIH3T3 cells, or 9.9×10^5 cells/well in 3 mL complete medium (DMEM+10% FBS+1×NEAA) for HeLa cells. Cells were grown overnight at 37° C.
(§3) 3,300 ng of reporter plasmid DNA in 155 μL OPTI-MEM® was mixed with 9.9 μL FUGENE® HD transfection reagent, vortexed briefly, and incubated at room temperature for 10 min. The CRE transcriptional reporters were used to transfect HEK293 and NIH3T3 cells. The HRE transcriptional reporters were used to transfect HeLa cells. The reporter mixture was added to cells and mixed by gentle rocking followed by incubation at 37° C. for 6 hrs (HEK293 and NIH3T3) or 3 hrs (HeLa). […]
(§4) FSK (CRE stimulator) or 17-AAG (HRE stimulator; 17-Allylamino-demethoxy geldanamycin) in OPTI-MEM® was added to the cells (10 nM or 10 μM final concentration for FSK; 1 nM or 1 μM final concentration for 17-AAG) and incubated at 37° C. for 4 hrs (FSK) or 6 hrs (17-AAG). […] Luminescence was measured on a GLOMAX® Luminometer.

[3] = test system: antioxidant response element (ARE); assay: Transcriptional reporter, reverse transfection, ARE in HEK293 cells; assay type: cell-based, human; details: 100 ng DNA, 24 h
Protocol: HEK293 cells were trypsinized (T75 flask, 3 mL trypsin) and resuspended in […] (approximately 8.9×10^6 total cells) in medium containing DMEM+10% FBS+1×NEAA. Each transcriptional reporter was prepared for transfection by mixing 1.2 mL OPTI-MEM®, 12 μL transcription reporter DNA (100 ng) and 36 μL FUGENE® HD transfection reagent together and incubated at room temperature for 35 min. Following incubation, 624 μL of the transfection/reporter DNA mixture was added to 12 mL of cell suspension and mixed by inversion. After mixing, 100 μL of the cell/DNA mixture was added to wells of a 96-well plate (2 constructs/plate). The cells were incubated at 37° C. for 22 hrs. Tert-butylhydroquinone (a Nrf2 stabilizer; tBHQ; 1 μM (“baseline”) or 20 μM) or sulphoraphane, (an organosulfer antioxidant known to activate Nrf2; 1 μM (“baseline”) or 20 μM) in OPTI-MEM® was added to each well and incubated at 37° C. for 24 hrs. Cells were lysed with 100 μL lytic reagent as described above for the forward transfection. Luminescence was measured on a GLOMAX® Luminometer.

[4] = Thermal stability of OgLuc variants at 60° C.; assay type: physicochemical; details: luminescence at start of incubation (t=0), PBI-3939
Protocol: Aliquots were removed at different time-points and placed on dry ice to freeze the samples. […] Luminescence was measured on a GLOMAX® luminometer (Promega Corp.).
The thermal stability of the variants at 60° C. was examined as described above, except the assay buffer contained 100 mM MES pH 6.0 instead of HEPES.

[5] = Brightness of purified OgLuc variant compared to firefly luciferase; assay type: biochemical
Protocol: The 9B8 OgLuc variant was overexpressed and purified as described in Example 33. Reactions between diluted enzyme and substrate were performed using the following 2× buffer/assay reagent: 100 mM MES pH 6.0, 1 mM CDTA, 150 mM KCl, 35 mM thiourea, 2 mM DTT, 0.25% TERGITOL® NP-9 (v/v), 0.025% MAZU® DF 204, 10 mg/mL 2-hydroxy-β-cyclodextrin, and 20 μM PBI-3939. The final assay concentrations of purified enzyme and substrate were 0.5 pM and 10 μM, respectively. In parallel, reactions between diluted purified firefly luciferase (i.e., QUANTILUM® Recombinant Luciferase (Promega Corp.)) and luciferin were analyzed. The assay buffer/reagent for the firefly luciferase reaction was BRIGHT-GLO™, and the final assay concentrations were 0.5 pM enzyme and 500 μM luciferin. As the buffers/reagents for each reaction were known to provide “glow” kinetics, a 15 min time point was used to collect luminescence data.

[6] = test system: CRE; assay: Transcriptional reporter, bulk transfection, CRE in HEK293 cells; assay type: cell-based, human; details: HEK293, 10 nM FSK, 4 h
Protocol: as §1, §2, §3, §4

[7] = test system: cAMP-response element (CRE); assay: cAMP transcriptional reporter in HEK293 cells; details: for fold-induction: FSK 5 hrs
[8] = test system: HEK293 cells; assay: Luminescence of luciferases in lysed HEK293 cells (codon optimization); assay type: cell-based, human; details: normalized
Protocol: Codon optimized versions of IV (“IV opt” (SEQ ID NO: 22) and “IV optB” (SEQ ID NO: 23)) and 9B8 (“9B8 opt” (SEQ ID NO: 24) and “9B8 optB” (SEQ ID NO: 25)) were generated and cloned into pF4Ag by methods known in the art. HEK293 cells were plated in 96-well plates at 15,000 cells/well and grown overnight at 37° C. The following day, the cells were transiently transfected in 6 well replicates using TRANSIT®-LT1 Transfection Reagent (Mirus Bio) with 100 ng of plasmid DNA encoding the codon optimized versions in pF4Ag and grown overnight at 37° C. HEK293 cells were also transfected with either pGL4.13 (Luc2/SV40) (Paguio et al., “pGL4 Vectors: A New Generation of Luciferase Reporter Vectors” Promega Notes, 89:7-10 (2005)) or pGL4.73 (hRL/SV40) (Id.) to normalize for differences in transfection efficiency. Ten ng/transfection or 10% of the total DNA transfected was used.
The OgLuc variants had higher luminescence compared to Luc2 and hRL.

Molecule | baseline ([1]; 10 ng DNA) [RLU] | RLU (10 µM FSK) ([1]; 10 ng DNA) | Response ([1]; 10 ng DNA) | baseline ([1]; 100 ng DNA) | RLU (10 µM FSK) ([1]; 100 ng DNA) | Response ([1]; 100 ng DNA) | baseline [2] | RLU (20 μM sulphoraphane) [3] | RLU (20 μM tBHQ) [3] | baseline ([3]; 1 μM sulphoraphane) | baseline ([3]; 1 μM tBHQ) | RLU [4] | fold brighter than QUANTILUM Recombinant Luciferase with BRIGHT-GLO [5] | luminescence ([5]; 0.5 pM purified enzyme, 15 min, 10 μM PBI-3939 or BRIGHT-GLO with 500 μM luciferin) | baseline [6] | fold-induction ([7]; 30 ng of DNA for transfection) | fold-induction ([7]; 100 ng of DNA for transfection) | induced luminescence higher than Luc2 transcriptional reporter ([7]; FSK induced) | induced luminescence higher than induced Renilla transcriptional reporter ([7]; FSK induced) | fold higher luminescence than hRL [8]
B1 | 192810 | 12,926,465 RLU | 67 | 3,078,418 RLU | 104,687,723 RLU | 34 | 9,187,000 RLU | 89,600,000 RLU | 120,000,000 RLU | 15,600,000 RLU | 15,100,000 RLU | 23,283,252,000 RLU | approximately 8 fold | 19,200 RLU | 39,700,000 RLU | 360 | 109 | approximately 1.5 logs | approximately 2.5 logs | –
B2 | – | – | – | – | – | – | – | – | – | – | – | – | – | – | – | – | – | – | – | approximately 14 fold

Source: patent publication US9951373B2, “Oplophorus-derived luciferases, novel coelenterazine substrates, and methods of use” (Promega Corporation, priority 2010, dated 2018)
